Experiments:
[1] = target: human full-length SSTR2 T194^45.51H (human) (UniProt P30874)
[2] = target: human full-length SSTR2 V103^2.64N (human) (UniProt P30874)
[3] = target: human full-length SSTR2 wild-type (human) (UniProt P30874)
[4] = target: human full-length SSTR3 H192^45.51T (human) (UniProt P32745)
[5] = target: human full-length SSTR3 N101^2.64V (human) (UniProt P32745)
[6] = target: human full-length SSTR3 wild-type (human) (UniProt P32745)
[7] = target: SSTR2 F127^3.37A (human) (UniProt P30874)
Sequence of SSTR2 F127^3.37A (human) (P30874 whole entry F127A): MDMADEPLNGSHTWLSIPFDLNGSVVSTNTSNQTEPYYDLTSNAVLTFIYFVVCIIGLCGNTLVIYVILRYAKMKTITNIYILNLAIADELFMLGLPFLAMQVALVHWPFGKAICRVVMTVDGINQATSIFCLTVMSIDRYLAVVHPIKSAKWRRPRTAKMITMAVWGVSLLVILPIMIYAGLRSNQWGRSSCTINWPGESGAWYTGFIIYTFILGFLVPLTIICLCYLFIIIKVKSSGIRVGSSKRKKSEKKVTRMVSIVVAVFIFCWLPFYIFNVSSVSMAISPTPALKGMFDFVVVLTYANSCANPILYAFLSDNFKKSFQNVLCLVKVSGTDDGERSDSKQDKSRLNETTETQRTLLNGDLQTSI

[8] = target: SSTR2 F208^5.38A (human) (UniProt P30874)
Sequence of SSTR2 F208^5.38A (human) (P30874 whole entry F208A): as the sequence (P30874 whole entry F127A) above, with A127F, F208A counted along it

[9] = target: SSTR2 F272^6.51A (human) (UniProt P30874)
Sequence of SSTR2 F272^6.51A (human) (P30874 whole entry F272A): as the sequence (P30874 whole entry F127A) above, with A127F, F272A counted along it

[10] = target: SSTR2 F294^7.35A (human) (UniProt P30874)
Sequence of SSTR2 F294^7.35A (human) (P30874 whole entry F294A): as the sequence (P30874 whole entry F127A) above, with A127F, F294A counted along it

[11] = target: SSTR2 I195^45.52A (human) (UniProt P30874)
Sequence of SSTR2 I195^45.52A (human) (P30874 whole entry I195A): as the sequence (P30874 whole entry F127A) above, with A127F, I195A counted along it

[12] = target: SSTR2 I284^ECL3A (human) (UniProt P30874)
Sequence of SSTR2 I284^ECL3A (human) (P30874 whole entry I284A): as the sequence (P30874 whole entry F127A) above, with A127F, I284A counted along it

[13] = target: SSTR2 K291^7.32A (human) (UniProt P30874)
Sequence of SSTR2 K291^7.32A (human) (P30874 whole entry K291A): as the sequence (P30874 whole entry F127A) above, with A127F, K291A counted along it

[14] = target: SSTR2 L99^2.60A (human) (UniProt P30874)
Sequence of SSTR2 L99^2.60A (human) (P30874 whole entry L99A): as the sequence (P30874 whole entry F127A) above, with L99A, A127F counted along it

[15] = target: SSTR2 N276^6.55A (human) (UniProt P30874)
Sequence of SSTR2 N276^6.55A (human) (P30874 whole entry N276A): as the sequence (P30874 whole entry F127A) above, with A127F, N276A counted along it

[16] = target: SSTR2 P286^ECL3A (human) (UniProt P30874)
Sequence of SSTR2 P286^ECL3A (human) (P30874 whole entry P286A): as the sequence (P30874 whole entry F127A) above, with A127F, P286A counted along it

[17] = target: SSTR2 Q102^2.63A (human) (UniProt P30874)
Sequence of SSTR2 Q102^2.63A (human) (P30874 whole entry Q102A): as the sequence (P30874 whole entry F127A) above, with Q102A, A127F counted along it

[18] = target: SSTR2 S279^6.58A (human) (UniProt P30874)
Sequence of SSTR2 S279^6.58A (human) (P30874 whole entry S279A): as the sequence (P30874 whole entry F127A) above, with A127F, S279A counted along it

[19] = target: SSTR2 S285^ECL3A (human) (UniProt P30874)
Sequence of SSTR2 S285^ECL3A (human) (P30874 whole entry S285A): as the sequence (P30874 whole entry F127A) above, with A127F, S285A counted along it

[20] = target: SSTR2 T194^45.51A (human) (UniProt P30874)
Sequence of SSTR2 T194^45.51A (human) (P30874 whole entry T194A): as the sequence (P30874 whole entry F127A) above, with A127F, T194A counted along it

[21] = target: SSTR2 T287^ECL3A (human) (UniProt P30874)
Sequence of SSTR2 T287^ECL3A (human) (P30874 whole entry T287A): as the sequence (P30874 whole entry F127A) above, with A127F, T287A counted along it

[22] = target: SSTR2 W188^ECL3A (human) (UniProt P30874)
Sequence of SSTR2 W188^ECL3A (human) (P30874 whole entry W188A): as the sequence (P30874 whole entry F127A) above, with A127F, W188A counted along it

[23] = target: SSTR2 Y205^5.35A (human) (UniProt P30874)
Sequence of SSTR2 Y205^5.35A (human) (P30874 whole entry Y205A): as the sequence (P30874 whole entry F127A) above, with A127F, Y205A counted along it

[24] = target: SSTR2 Y302^7.43A (human) (UniProt P30874)
Sequence of SSTR2 Y302^7.43A (human) (P30874 whole entry Y302A): as the sequence (P30874 whole entry F127A) above, with A127F, Y302A counted along it

[25] = target: human full-length SSTR2 wild-type with SmBiT at the C-terminus (human) (UniProt P30874)
Sequence of human full-length SSTR2 wild-type with SmBiT at the C-terminus (human) (P30874 whole entry): as the sequence (P30874 whole entry F127A) above, with A127F counted along it

[26] = target: SSTR2 T194^45.51H (human) (UniProt P30874)
Sequence of SSTR2 T194^45.51H (human) (P30874 whole entry T194H): as the sequence (P30874 whole entry F127A) above, with A127F, T194H counted along it

[27] = target: SSTR2 V103^2.64N (human) (UniProt P30874)
Sequence of SSTR2 V103^2.64N (human) (P30874 whole entry V103N): as the sequence (P30874 whole entry F127A) above, with V103N, A127F counted along it

[28] = target: SSTR3 H192^45.51T (human) (UniProt P32745)
Sequence of SSTR3 H192^45.51T (human) (P32745 whole entry H192T): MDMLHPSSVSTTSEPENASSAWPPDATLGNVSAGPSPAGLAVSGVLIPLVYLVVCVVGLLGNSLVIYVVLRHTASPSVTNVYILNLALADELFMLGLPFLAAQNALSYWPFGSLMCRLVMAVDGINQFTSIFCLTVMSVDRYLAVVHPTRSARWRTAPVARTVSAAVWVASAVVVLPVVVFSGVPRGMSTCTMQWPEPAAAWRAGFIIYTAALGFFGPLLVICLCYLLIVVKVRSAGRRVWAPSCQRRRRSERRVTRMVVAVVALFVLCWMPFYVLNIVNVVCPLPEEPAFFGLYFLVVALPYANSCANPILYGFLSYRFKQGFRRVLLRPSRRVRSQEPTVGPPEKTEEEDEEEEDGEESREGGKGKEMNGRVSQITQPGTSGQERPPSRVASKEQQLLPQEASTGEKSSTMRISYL

[29] = target: SSTR3 N101^2.64V (human) (UniProt P32745)
Sequence of SSTR3 N101^2.64V (human) (P32745 whole entry): as the sequence (P32745 whole entry H192T) above, with T192H counted along it

[30] = target: human full-length SSTR2 wild-type with SmBiT at the C-terminus (human) (UniProt P30874); remark: listed apart in the source
[31] = target: human full-length SSTR3 wild-type (human) (UniProt P32745); remark: listed apart in the source

Sequence of human full-length SSTR3 wild-type (human) (P32745 whole entry): as the sequence (P32745 whole entry H192T) above, with T192H counted along it
Sequence of human full-length SSTR2 V103^2.64N (human) (P30874 whole entry V103N): as the sequence (P30874 whole entry F127A) above, with V103N, A127F counted along it
Sequence of human full-length SSTR2 T194^45.51H (human) (P30874 whole entry T194H): as the sequence (P30874 whole entry F127A) above, with A127F, T194H counted along it
Sequence of human full-length SSTR2 wild-type (human) (P30874 whole entry): as the sequence (P30874 whole entry F127A) above, with A127F counted along it
Sequence of human full-length SSTR3 N101^2.64V (human) (P32745 whole entry): as the sequence (P32745 whole entry H192T) above, with T192H counted along it
Sequence of human full-length SSTR3 H192^45.51T (human) (P32745 whole entry H192T): as the sequence (P32745 whole entry H192T) above

Substance: octreotide (peptide)
- octreotide induced cAMP inhibition (GloSensor, HEK293 cells, 1e-13 to 1e-06): EC50 of the fit T194H-1 [1]: 28.2 nM
- octreotide induced cAMP inhibition (GloSensor, HEK293 cells, 1e-13 to 1e-06): EC50 of the fit T194H-2 [1]: 28.2 nM
- octreotide induced cAMP inhibition (GloSensor, HEK293 cells, 1e-13 to 1e-06): EC50 of the fit V103N-1 [2]: 0.227 nM
- octreotide induced cAMP inhibition (GloSensor, HEK293 cells, 1e-13 to 1e-06): EC50 of the fit V103N-2 [2]: 0.227 nM
- octreotide induced cAMP inhibition (GloSensor, HEK293 cells, 1e-13 to 1e-06): EC50 of the fit WT-1 [3]: 0.208 nM
- octreotide induced cAMP inhibition (GloSensor, HEK293 cells, 1e-13 to 1e-06): EC50 of the fit WT-2 [3]: 0.208 nM
- octreotide induced cAMP inhibition (GloSensor, HEK293 cells, 1e-13 to 1e-06): EC50 of the fit H192T-1 [4]: 82.9 nM
- octreotide induced cAMP inhibition (GloSensor, HEK293 cells, 1e-13 to 1e-06): EC50 of the fit H192T-2 [4]: 21 nM
- octreotide induced cAMP inhibition (GloSensor, HEK293 cells, 1e-13 to 1e-06): EC50 of the fit N101V-1 [5]: 2.5 nM
- octreotide induced cAMP inhibition (GloSensor, HEK293 cells, 1e-13 to 1e-06): EC50 of the fit N101V-2 [5]: 1.33 nM
- octreotide induced cAMP inhibition (GloSensor, HEK293 cells, 1e-13 to 1e-06): EC50 of the fit WT-1 (SSTR3) [6]: 54.7 nM
- octreotide induced cAMP inhibition (GloSensor, HEK293 cells, 1e-13 to 1e-06): EC50 of the fit WT-2 (SSTR3) [6]: 30.1 nM
- EC50 of octreotide-induced cAMP inhibition (Gi signaling, GloSensor, HEK293 cells expressing the receptor) [7]: 1.93 nM
- EC50 of octreotide-induced cAMP inhibition (Gi signaling, GloSensor, HEK293 cells expressing the receptor) [8]: 6.42 nM
- EC50 of octreotide-induced cAMP inhibition (Gi signaling, GloSensor, HEK293 cells expressing the receptor) [9]: 322 nM
- EC50 of octreotide-induced cAMP inhibition (Gi signaling, GloSensor, HEK293 cells expressing the receptor) [10]: 190 nM
- EC50 of octreotide-induced cAMP inhibition (Gi signaling, GloSensor, HEK293 cells expressing the receptor) [11]: 6.58 nM
- EC50 of octreotide-induced cAMP inhibition (Gi signaling, GloSensor, HEK293 cells expressing the receptor) [12]: 1.91 nM
- EC50 of octreotide-induced cAMP inhibition (Gi signaling, GloSensor, HEK293 cells expressing the receptor) [13]: 5.46 nM
- EC50 of octreotide-induced cAMP inhibition (Gi signaling, GloSensor, HEK293 cells expressing the receptor) [14]: 1.25 nM
- EC50 of octreotide-induced cAMP inhibition (Gi signaling, GloSensor, HEK293 cells expressing the receptor) [15]: 35.1 nM
- EC50 of octreotide-induced cAMP inhibition (Gi signaling, GloSensor, HEK293 cells expressing the receptor) [16]: 0.62 nM
- EC50 of octreotide-induced cAMP inhibition (Gi signaling, GloSensor, HEK293 cells expressing the receptor) [17]: 66.8 nM
- EC50 of octreotide-induced cAMP inhibition (Gi signaling, GloSensor, HEK293 cells expressing the receptor) [18]: 1.17 nM
- EC50 of octreotide-induced cAMP inhibition (Gi signaling, GloSensor, HEK293 cells expressing the receptor) [19]: 0.69 nM
- EC50 of octreotide-induced cAMP inhibition (Gi signaling, GloSensor, HEK293 cells expressing the receptor) [20]: 48.5 nM
- EC50 of octreotide-induced cAMP inhibition (Gi signaling, GloSensor, HEK293 cells expressing the receptor) [21]: 0.6 nM
- EC50 of octreotide-induced cAMP inhibition (Gi signaling, GloSensor, HEK293 cells expressing the receptor) [22]: 0.32 nM
- EC50 of octreotide-induced cAMP inhibition (Gi signaling, GloSensor, HEK293 cells expressing the receptor) [23]: 0.92 nM
- EC50 of octreotide-induced cAMP inhibition (Gi signaling, GloSensor, HEK293 cells expressing the receptor) [24]: 79 nM
- EC50 of octreotide-induced cAMP inhibition (Gi signaling, GloSensor, HEK293 cells expressing the receptor) [25]: 0.46 nM
- EC50 of octreotide-induced cAMP inhibition (GloSensor, HEK293 cells expressing the receptor; Supplementary Table 5) [26]: 18.7 nM
- EC50 of octreotide-induced cAMP inhibition (GloSensor, HEK293 cells expressing the receptor; Supplementary Table 5) [27]: 0.23 nM
- EC50 of octreotide-induced cAMP inhibition (GloSensor, HEK293 cells expressing the receptor; Supplementary Table 5) [28]: 21 nM
- EC50 of octreotide-induced cAMP inhibition (GloSensor, HEK293 cells expressing the receptor; Supplementary Table 5) [29]: 1.33 nM
- EC50 of octreotide-induced cAMP inhibition (GloSensor, HEK293 cells expressing the receptor; Supplementary Table 5) [30]: 0.21 nM
- EC50 of octreotide-induced cAMP inhibition (GloSensor, HEK293 cells expressing the receptor; Supplementary Table 5) [31]: 30.1 nM

Reference: PMC9944328 (Nature Communications, 2023)
